According to the RNAGym collection of RNA variant scans (doi:10.7554/elife.80360):

B1: CPEB3 Ribozyme (parent)
chain: GGGGGCCACAGCAGAAGCGUUCACGUCGCGGCCCCUGUCAGAUUCUGGUGAAUCUGCGAAUUCUGCUGU

Variants of: B1
Test: self-cleavage, relative activity (ratio to wild type); higher = more cleavage; co-transcriptional
C7U A16G gave a self-cleavage of 0.908.
A8G U44G showed a self-cleavage of 0.651.
Work on A8G U44A yielded a self-cleavage of 0.607.
For C7G C35A, the self-cleavage was 0.13.
Variant A8G A23C has a self-cleavage of 0.751.
Variant C6U U38A has a self-cleavage of 0.916.
A8U A52C gave a self-cleavage of 0.975.
Work on C7A U64C yielded a self-cleavage of 0.336.
Variant A8C U38G has a self-cleavage of 0.245.
Variant A8C U38A has a self-cleavage of 0.897.
In the case of A8G C9A, the self-cleavage is reported as 0.994.
Variant C7A A16G has a self-cleavage of 0.383.
C7A A16C gave a self-cleavage of 0.0791.
Work on A8C A40C yielded a self-cleavage of 0.639.
In the case of C7A U43A, the self-cleavage is reported as 0.266.
C7A U43G showed a self-cleavage of 0.373.
Variant A8U A51C has a self-cleavage of 0.974.
A8U A59G gave a self-cleavage of 1.
In the case of C6U G58U, the self-cleavage is reported as 1.01.
Variant A8G U36G has a self-cleavage of 0.135.
For A8G U36C, the self-cleavage was 0.593.
C7U U55G gave a self-cleavage of 0.706.
Work on C7U U55C yielded a self-cleavage of 0.744.
In the case of C7A G11C, the self-cleavage is reported as 0.305.
In the case of A8C C63G, the self-cleavage is reported as 0.734.
In the case of A8G G48C, the self-cleavage is reported as 0.954.
Work on C7A U69C yielded a self-cleavage of 1.
Work on C7U G41C yielded a self-cleavage of 0.647.
A8G U62G gave a self-cleavage of 0.367.
For C7A C63A, the self-cleavage was 0.149.
For C7A C63G, the self-cleavage was 0.303.
Work on C7G U46G yielded a self-cleavage of 0.455.
A8C A13U showed a self-cleavage of 0.849.
Work on A8C A13G yielded a self-cleavage of 0.987.
C6U U62C showed a self-cleavage of 0.811.
In the case of C7G U26A, the self-cleavage is reported as 0.103.
C7G U26G gave a self-cleavage of 0.233.
In the case of C7U U26A, the self-cleavage is reported as 0.597.
In the case of C7U U26G, the self-cleavage is reported as 0.762.
C7U C66A gave a self-cleavage of 0.8.
C7U C66U gave a self-cleavage of 0.982.
C7A G58C showed a self-cleavage of 0.464.
For A8G C27G, the self-cleavage was 0.0649.
With C7G C9U the self-cleavage was 0.844.
Variant A8C C66A has a self-cleavage of 0.818.
In the case of A8G C35U, the self-cleavage is reported as 0.808.
With C7U C18G the self-cleavage was 0.104.
Variant C7G C33U has a self-cleavage of 0.253.
For C7U G31A, the self-cleavage was 0.496.
Work on A8C U67C yielded a self-cleavage of 1.
In the case of A8C U67G, the self-cleavage is reported as 0.975.
C6U U69C showed a self-cleavage of 1.06.
For A8G C45G, the self-cleavage was 0.801.
Variant A8G U64G has a self-cleavage of 0.304.
With A8G C33G the self-cleavage was 0.488.
Variant C7U C24U has a self-cleavage of 0.676.
C7U C24G showed a self-cleavage of 0.225.
For A8C A51G, the self-cleavage was 0.962.
For A8C A51C, the self-cleavage was 0.981.
Variant C7A G31U has a self-cleavage of 0.598.
For C7A U62G, the self-cleavage was 0.29.
Work on C7A G48C yielded a self-cleavage of 0.681.
For A8C G41C, the self-cleavage was 0.757.
C7U C63G showed a self-cleavage of 0.603.
Work on C7G G58A yielded a self-cleavage of 0.281.
For C7G C29U, the self-cleavage was 0.0696.
Work on C7G C29G yielded a self-cleavage of 0.125.
In the case of C7G C29A, the self-cleavage is reported as 0.102.
Variant C7G G19C has a self-cleavage of 0.106.
Variant C7G A60C has a self-cleavage of 0.196.
A8C G65C showed a self-cleavage of 0.635.
A8C G47U gave a self-cleavage of 1.04.
Variant A8C G47C has a self-cleavage of 1.03.
Work on A8C G50U yielded a self-cleavage of 1.03.
Work on A8C G50C yielded a self-cleavage of 0.98.
For A8C G50A, the self-cleavage was 1.02.
Work on C7A U44A yielded a self-cleavage of 0.447.
In the case of A8U A15C, the self-cleavage is reported as 0.812.
Work on A8G A16G yielded a self-cleavage of 0.458.
For A8G A16C, the self-cleavage was 0.0896.
Variant C7U C34U has a self-cleavage of 0.969.
C7U C34G showed a self-cleavage of 0.287.
C7G A15U gave a self-cleavage of 0.0664.
A8G A13G showed a self-cleavage of 0.192.
Variant A8G A13C has a self-cleavage of 0.126.
In the case of A8G A51G, the self-cleavage is reported as 0.901.
Variant A8G A51U has a self-cleavage of 0.772.
Work on C7A C18U yielded a self-cleavage of 0.224.
C7A C18G gave a self-cleavage of 0.159.
A8G U61A showed a self-cleavage of 0.379.
C7A A15U gave a self-cleavage of 0.135.
A8G U53C showed a self-cleavage of 0.31.
A8G U53A showed a self-cleavage of 0.591.
Work on C7G G17C yielded a self-cleavage of 0.112.
C7G G17U showed a self-cleavage of 0.0489.
In the case of C7G U69A, the self-cleavage is reported as 0.728.
With C7G A23U the self-cleavage was 0.645.
C7G A23G gave a self-cleavage of 0.333.
Variant C7A G68C has a self-cleavage of 0.923.
Variant A8C A42C has a self-cleavage of 0.992.
Work on C7U G48C yielded a self-cleavage of 0.949.
Variant C7G C24A has a self-cleavage of 0.0945.
A8C U20G gave a self-cleavage of 0.141.
Variant C7U U61G has a self-cleavage of 0.714.
A8G U43C gave a self-cleavage of 0.758.
For A8G A15G, the self-cleavage was 0.777.
C7G A52G gave a self-cleavage of 0.38.
Variant A8G U55A has a self-cleavage of 0.269.
For C6U U49A, the self-cleavage was 1.
Variant C6U U49G has a self-cleavage of 0.956.
With A8G G65U the self-cleavage was 0.223.
A8G G65C showed a self-cleavage of 0.424.
In the case of C7A G47U, the self-cleavage is reported as 0.637.
With C7A G47C the self-cleavage was 0.593.
C7A G47A gave a self-cleavage of 0.612.
In the case of A8C C54A, the self-cleavage is reported as 0.915.
In the case of A8C U61A, the self-cleavage is reported as 0.913.
For A8U C12U, the self-cleavage was 1.05.
For C7G C12A, the self-cleavage was 0.0557.
For C7G C12G, the self-cleavage was 0.223.
For C7G C12U, the self-cleavage was 0.383.
Variant C7A C9A has a self-cleavage of 0.97.
With C7A C12U the self-cleavage was 0.592.
In the case of C6U G25U, the self-cleavage is reported as 0.18.
C7A G56U gave a self-cleavage of 0.357.
Variant C7G C57A has a self-cleavage of 0.146.
With C7U G68U the self-cleavage was 0.965.
C6U U67C gave a self-cleavage of 1.02.
Variant C6U U67A has a self-cleavage of 0.995.
Work on C6U U26G yielded a self-cleavage of 0.91.
Work on C7A C57G yielded a self-cleavage of 0.179.
Variant C7U C57G has a self-cleavage of 0.155.
In the case of A8U A40G, the self-cleavage is reported as 0.97.
For A8C C35A, the self-cleavage was 0.374.
A8C G14U showed a self-cleavage of 0.723.
For C7A A10U, the self-cleavage was 0.912.
C7G G28A gave a self-cleavage of 0.0296.
C7G G28C gave a self-cleavage of 0.106.
C7U C12G gave a self-cleavage of 0.822.
With C7U C12U the self-cleavage was 0.94.
Work on A8U C9A yielded a self-cleavage of 1.03.
C7A A59C gave a self-cleavage of 0.239.
In the case of A8C A52U, the self-cleavage is reported as 0.962.
Variant C7G G56U has a self-cleavage of 0.177.
For A8G C39U, the self-cleavage was 0.448.
A8C C12A gave a self-cleavage of 0.637.
In the case of C6U G41U, the self-cleavage is reported as 0.817.
Work on A8C U21G yielded a self-cleavage of 0.501.
Variant A8C U21A has a self-cleavage of 0.972.
A8C G58C showed a self-cleavage of 0.963.
A8C G58U showed a self-cleavage of 1.03.
A8C U64A gave a self-cleavage of 0.947.
For C7G G47U, the self-cleavage was 0.636.
C7G G47C showed a self-cleavage of 0.604.
For C7U U64G, the self-cleavage was 0.899.
A8C C18A gave a self-cleavage of 0.152.
With C7U A60C the self-cleavage was 0.231.
C7U G25U gave a self-cleavage of 0.089.
In the case of C7G C32A, the self-cleavage is reported as 0.0649.
For C7A C35A, the self-cleavage was 0.126.
With C7U G56A the self-cleavage was 0.916.
For C7U U20G, the self-cleavage was 0.17.
For A8C G31A, the self-cleavage was 0.888.
For C6U G31A, the self-cleavage was 1.02.
In the case of A8G G19A, the self-cleavage is reported as 0.0612.
Variant C7A C32A has a self-cleavage of 0.165.
In the case of C7A A51U, the self-cleavage is reported as 0.402.
